Laboratory results taken from patent publication US20230279141A1 (MINERVA BIOTECHNOLOGIES, published 2023).
No end group written: not given here.

T1: recombinant human NME7-AB (human, UniProt Q9Y5B8 92-376)
T1 construct: Monomer with A and B domains; also called NME-AB
T1 sequence: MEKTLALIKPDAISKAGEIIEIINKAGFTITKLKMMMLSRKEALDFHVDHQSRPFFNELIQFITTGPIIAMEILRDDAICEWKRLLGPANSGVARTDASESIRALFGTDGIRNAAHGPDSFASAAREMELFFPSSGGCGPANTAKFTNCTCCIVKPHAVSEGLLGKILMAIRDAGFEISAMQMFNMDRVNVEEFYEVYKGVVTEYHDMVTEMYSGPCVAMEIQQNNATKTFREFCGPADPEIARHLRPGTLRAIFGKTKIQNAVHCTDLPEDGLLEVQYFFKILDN


Key:
[1] = target: T1, recombinant human NME7-AB; test: ELISA, plate coated with recombinant NME7-AB (FIG. 24)
[2] = target: T1, recombinant human NME7-AB; test: sandwich ELISA, PSMGFR-Cys-BSA on the plate, second tagged PSMGFR in solution (FIG. 1)
Protocol: The PSMGFR peptide bearing a C-terminal Cysteine (PSMGFR-Cys) was covalently coupled to BSA using Imject Maleimide activated BSA kit (Thermo Fisher). PSMGFR-Cys coupled BSA was diluted to 10 ug/mL in 0.1M carbonate/bicarbonate buffer pH 9.6 and 50 uL was added to each well of a 96 well plate. After overnight incubation at 4° C., the plate was washed twice with PBS-T and a 3% BSA solution was added to block remaining binding site on the well. After 1 h at RT the plate was washed twice with PBS-T and NME7, diluted in PBS-T+1% BSA, was added at different concentrations. After 1 h at RT the plate was washed 3× with PBS-T and anti-NM23-H7 (B-9, Santa Cruz Biotechnology), diluted in PBS-T+1% BSA, was added at 1/500 dilution. […] After 1 h at RT the plate was washed 3× with PBS-T and binding of NME7 was measured at 415 nm using ABTS solution (Pierce). […]
After 1 h at RT the plate was washed 3× with PBS-T and His-Tagged PSMGFR peptide (PSMGFR-His) or biotinylated PSMGFR peptide (PSMGFR-biotin), diluted in PBS-T+1% BSA, was added at different concentration. […] After 1 h at RT the plate was washed 3× with PBS-T and binding of PSMGFR peptide to NME7 already bound to another PSMGFR peptide (which could not signal by anti-His antibody or by streptavidin) coupled BSA was measured at 415 nm using a ABTS solution (Pierce).

binding result [1] | binding result [2] | Binder
binds | – | anti-NME7AB monoclonal antibody 5F3A5D4 (antibody, V domains shown, Mouse monoclonal) VH: VQLQQSGPDLVKPGTSVKISCKTSGNTFTEYTMHWVKQSHGKSLEWIGGFNPNNGVTNYNQKFKGKATLTVDKSSSTAYMELRSLTSEDSAVYYCARRYYHSTYVFYFDSWGQGTTLTVSS VL: DIQMTQTTSSLSASLGDRVTISCSASQGISNYLNWFQQKPDGTIKLLIYYTSSLHSGVPSRFSGSGSGTDYSLTISNVEPEDIATYYCQQYSKLPYTFGGGTKLEIKR
– | binds | GTINVHDVETQFNQYKTEAASRYNLTISDVSVSDVPFPFSAQSGA (also: also used with C-terminal Cys coupled to BSA, or His-tagged or biotinylated, also called MUC1* peptide; FLR) [PSMGFR peptide (MUC1* extra cellular domain peptide)]
binds | – | anti-NME7AB monoclonal antibody 8F9A5A1 (antibody, V domains shown, Mouse monoclonal) VH: IQLVQSGPELKKPGETVKISCKASGYTFTNYGMNWVKQAPGKGLKWMGWINTYTGEPTYVDDFKGRFAFSLETSATTAYLQINNLKNEDTSTYFCARLRGIRPGPLAYWGQGTLVTVSA VL: EILLTQSPAIIAASPGEKVTITCSASSSVSYMNWYQQKPGSSPKIWIYGISNLASGVPARFSGSGSGTSFSFTINSMEAEDVATYYCQQRSSYPPTFGGGTKLEIKR
